Data reported in patent US20240317834A1, “COMPOSITIONS AND METHODS FOR NEUROLOGICAL DISEASES” (CODA BIOTHERAPEUTICS, INC., priority 2020, published 2024).

How the values were obtained:
Lenti-X 293T cells = assay: YFP fluorescence quenching anion reporter plate reader assay of engineered receptors stimulated with acetylcholine or a non-native ligand; type: cell-based; settings: for percent quench of YFP fluorescence, 30 nM TC-6683: TC-6683 30 nM; for percent quench of YFP fluorescence, 300 nM TC-6683: TC-6683 300 nM; for percent quench of YFP fluorescence, 3 uM TC-6683: TC-6683 3 uM; for percent quench of YFP fluorescence, 30 uM TC-6683: TC-6683 30 uM; for percent quench of YFP fluorescence, 100 uM TC-6683: TC-6683 100 uM; for percent quench of YFP fluorescence, 100 uM ach: acetylcholine 100 uM; for percent quench of YFP fluorescence, 300 uM ach: acetylcholine 300 uM; for percent quench of YFP fluorescence, 500 uM ach: acetylcholine 500 uM; for percent quench of YFP fluorescence, 1 mM ach: acetylcholine 1 mM; for percent quench of YFP fluorescence, 3 mM ach: acetylcholine 3 mM; for percent quench of YFP fluorescence, 10 mM ach: acetylcholine 10 mM
How it was run: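 YFP quench was followed for about 1 min 43 s after ligand delivered in iodide-based ECS, pH 7.2. Values are end-of-read fluorescence (last 10 s) divided by the pre-ligand baseline (15 s). Cells were LX293T, transfected with receptor DNA a day before the assay.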

rat DRG neurons = assay: Rheobase shift and evoked action potentials in rat DRG neurons (current clamp); type: cell-based; settings: for Rheobase Shift; Rat DRG Neurons, Baseline: no ligand
How it was run: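 Rat DRG neurons expressing engineered receptors, whole-cell current clamp at RT. ECS at pH 7.3; K-gluconate internal at pH 7.2. 500 ms steps from −200 to 700 pA with and without ligand. Rheobase taken as the smallest depolarising step that fires an action potential; input resistance from negative steps.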

B1: CODA1045: engineered chimeric LGIC receptor, R101W, Y210V in SEQ ID NO: 33 (protein)
chain: MRCSPGGVWLALAASLLHVSLQGEFQRKLYKELVKNYNPLERPVANDSQPLTVYFSLSLLQIMDVDEKNQVLTTNIWLQMSWTDHYLQWNVSEYPGVKTVWFPDGQIWKPDILLYNSADERFDATFHTNVLVNSSGHCQYLPPGIFKSSCPMDLKNFPMDVQTCKLKFGSWSYGGWSLDLQMQEADISGYIPNGEWDLVGIPGKRSERFVECCKEPYPDVTFTVTMRRRMGYYLIQMYIPSLLIVILSWISFWINMDAAPARVGLGITTVLTMTTQSSGSRASLPKVSYVKAIDIWMAVCLLFVFSALLEYAAVNFVSRQHKELLRFRRKRRHHKSPMLNLFQEDEAGEGRFNFSAYGMGPACLQAKDGISVKGANNSNTTNPPPAPSKSPEEMRKLFIQRAKKIDKISRIGFPMAFLIFNMFYWIIYKIVRREDVHNQ
modifications: synthetic sequence of chimeric LGIC
YFP fluorescence quenching using CNL001 (Lenti-X 293T cells; 1 nM CNL001, first column): 0.804% | YFP fluorescence quenching using CNL001 (Lenti-X 293T cells; 1 nM CNL001, second column): 11.275% | YFP fluorescence quenching using TC-5619/Bradanicline (Lenti-X 293T cells; 1 nM brd): −1.431% | YFP fluorescence quenching using TC-5619/Bradanicline (Lenti-X 293T cells; 3 nM brd): −14.993% | YFP fluorescence quenching using Varenicline (Lenti-X 293T cells; 3 nM var, first column): 6.745 | YFP fluorescence quenching using Varenicline (Lenti-X 293T cells; 3 nM var, second column): 8.397 | YFP fluorescence quenching using CNL001 (Lenti-X 293T cells; 10 nM CNL001, first column): 15.843% | YFP fluorescence quenching using CNL001 (Lenti-X 293T cells; 10 nM CNL001, second column): 16.619% | YFP fluorescence quenching using TC-5619/Bradanicline (Lenti-X 293T cells; 10 nM brd): −5.52% | YFP fluorescence quenching using TC-5619/Bradanicline (Lenti-X 293T cells; 30 nM brd): 15.49% | YFP fluorescence quenching using Varenicline (Lenti-X 293T cells; 30 nM var, first column): 14.1 | YFP fluorescence quenching using Varenicline (Lenti-X 293T cells; 30 nM var, second column): 19.095 | YFP fluorescence quenching using CNL001 (Lenti-X 293T cells; 50 nM CNL001, first column): 15.205% | YFP fluorescence quenching using CNL001 (Lenti-X 293T cells; 50 nM CNL001, second column): 18.771% | YFP fluorescence quenching using ABT-126 (Lenti-X 293T cells; 50 nM abt): −24.16% | YFP fluorescence quenching using CNL001 (Lenti-X 293T cells; 100 nM CNL001, first column): 9.332% | YFP fluorescence quenching using CNL001 (Lenti-X 293T cells; 100 nM CNL001, second column): 18.218% | YFP fluorescence quenching using ABT-126 (Lenti-X 293T cells; 100 nM abt): −24.7% | YFP fluorescence quenching using TC-5619/Bradanicline (Lenti-X 293T cells; 100 nM brd): 72.105% | YFP fluorescence quenching using ABT-126 (Lenti-X 293T cells; 300 nM abt): −16.09% | YFP fluorescence quenching using TC-5619/Bradanicline (Lenti-X 293T cells; 300 nM brd): 71.411% | YFP fluorescence quenching using Varenicline (Lenti-X 293T cells; 300 nM var, first column): 16.83 | YFP fluorescence quenching using Varenicline (Lenti-X 293T cells; 300 nM var, second column): 21.507 | YFP fluorescence quenching using Varenicline (Lenti-X 293T cells; 500 nM var, first column): 21.586 | YFP fluorescence quenching using Varenicline (Lenti-X 293T cells; 500 nM var, second column): 23.131 | YFP fluorescence quenching using CNL001 (Lenti-X 293T cells; 1 uM CNL001, first column): 35.294% | YFP fluorescence quenching using CNL001 (Lenti-X 293T cells; 1 uM CNL001, second column): 36.542% | YFP fluorescence quenching using ABT-126 (Lenti-X 293T cells; 1 uM abt): −11.61% | YFP fluorescence quenching using Varenicline (Lenti-X 293T cells; 1 uM var, first column): 31.591 | YFP fluorescence quenching using Varenicline (Lenti-X 293T cells; 1 uM var, second column): 26.479 | percent quench of YFP fluorescence, 30 nM TC-6683 (Lenti-X 293T cells): 1.735% | percent quench of YFP fluorescence, 300 nM TC-6683 (Lenti-X 293T cells): 0.642% | percent quench of YFP fluorescence, 3 uM TC-6683 (Lenti-X 293T cells): 2.403% | percent quench of YFP fluorescence, 30 uM TC-6683 (Lenti-X 293T cells): 6.006% | percent quench of YFP fluorescence, 100 uM TC-6683 (Lenti-X 293T cells): −4.277% | percent quench of YFP fluorescence, 10 uM ach (Lenti-X 293T cells; acetylcholine 10 uM): −2.52% | percent quench of YFP fluorescence, 100 uM ach (Lenti-X 293T cells): −11.98% | percent quench of YFP fluorescence, 300 uM ach (Lenti-X 293T cells): −16.71% | percent quench of YFP fluorescence, 500 uM ach (Lenti-X 293T cells): −12.87% | percent quench of YFP fluorescence, 1 mM ach (Lenti-X 293T cells): −14.41% | percent quench of YFP fluorescence, 3 mM ach (Lenti-X 293T cells): −7.4% | percent quench of YFP fluorescence, 10 mM ach (Lenti-X 293T cells): −1.5% | Rheobase Shift; Rat DRG Neurons, +TC-5619 @ EC90 (rat DRG neurons): 700 ± 0 pA | Rheobase Shift; Rat DRG Neurons, Baseline (rat DRG neurons): 141 ± 22 pA

B2: CODA1048: engineered chimeric LGIC receptor, R101F, Y210F in SEQ ID NO: 33 (protein)
chain: MRCSPGGVWLALAASLLHVSLQGEFQRKLYKELVKNYNPLERPVANDSQPLTVYFSLSLLQIMDVDEKNQVLTTNIWLQMSWTDHYLQWNVSEYPGVKTVFFPDGQIWKPDILLYNSADERFDATFHTNVLVNSSGHCQYLPPGIFKSSCPMDLKNFPMDVQTCKLKFGSWSYGGWSLDLQMQEADISGYIPNGEWDLVGIPGKRSERFFECCKEPYPDVTFTVTMRRRMGYYLIQMYIPSLLIVILSWISFWINMDAAPARVGLGITTVLTMTTQSSGSRASLPKVSYVKAIDIWMAVCLLFVFSALLEYAAVNFVSRQHKELLRFRRKRRHHKSPMLNLFQEDEAGEGRFNFSAYGMGPACLQAKDGISVKGANNSNTTNPPPAPSKSPEEMRKLFIQRAKKIDKISRIGFPMAFLIFNMFYWIIYKIVRREDVHNQ
modifications: synthetic sequence of chimeric LGIC
YFP fluorescence quenching using CNL001 (Lenti-X 293T cells; 1 nM CNL001, first column): 9.114% | YFP fluorescence quenching using CNL001 (Lenti-X 293T cells; 1 nM CNL001, second column): 0.845% | YFP fluorescence quenching using TC-5619/Bradanicline (Lenti-X 293T cells; 1 nM brd): −2.084% | YFP fluorescence quenching using TC-5619/Bradanicline (Lenti-X 293T cells; 3 nM brd): −9.098% | YFP fluorescence quenching using Varenicline (Lenti-X 293T cells; 3 nM var, first column): −17.119 | YFP fluorescence quenching using Varenicline (Lenti-X 293T cells; 3 nM var, second column): −13.234 | YFP fluorescence quenching using CNL001 (Lenti-X 293T cells; 10 nM CNL001, first column): 28.944% | YFP fluorescence quenching using CNL001 (Lenti-X 293T cells; 10 nM CNL001, second column): 53.629% | YFP fluorescence quenching using TC-5619/Bradanicline (Lenti-X 293T cells; 10 nM brd): −2.587% | YFP fluorescence quenching using TC-5619/Bradanicline (Lenti-X 293T cells; 30 nM brd): 55.818% | YFP fluorescence quenching using Varenicline (Lenti-X 293T cells; 30 nM var, first column): −7.747 | YFP fluorescence quenching using Varenicline (Lenti-X 293T cells; 30 nM var, second column): 4.193 | YFP fluorescence quenching using CNL001 (Lenti-X 293T cells; 50 nM CNL001, first column): 68.581% | YFP fluorescence quenching using CNL001 (Lenti-X 293T cells; 50 nM CNL001, second column): 74.379% | YFP fluorescence quenching using ABT-126 (Lenti-X 293T cells; 50 nM abt): −23.28% | YFP fluorescence quenching using CNL001 (Lenti-X 293T cells; 100 nM CNL001, first column): 80.541% | YFP fluorescence quenching using CNL001 (Lenti-X 293T cells; 100 nM CNL001, second column): 80.774% | YFP fluorescence quenching using ABT-126 (Lenti-X 293T cells; 100 nM abt): −21.78% | YFP fluorescence quenching using TC-5619/Bradanicline (Lenti-X 293T cells; 100 nM brd): 76.957% | YFP fluorescence quenching using ABT-126 (Lenti-X 293T cells; 300 nM abt): −19.35% | YFP fluorescence quenching using TC-5619/Bradanicline (Lenti-X 293T cells; 300 nM brd): 74.268% | YFP fluorescence quenching using Varenicline (Lenti-X 293T cells; 300 nM var, first column): 4.149 | YFP fluorescence quenching using Varenicline (Lenti-X 293T cells; 300 nM var, second column): 1.512 | YFP fluorescence quenching using Varenicline (Lenti-X 293T cells; 500 nM var, first column): −1.572 | YFP fluorescence quenching using Varenicline (Lenti-X 293T cells; 500 nM var, second column): 3.71 | YFP fluorescence quenching using CNL001 (Lenti-X 293T cells; 1 uM CNL001, first column): 83.143% | YFP fluorescence quenching using CNL001 (Lenti-X 293T cells; 1 uM CNL001, second column): 81.751% | YFP fluorescence quenching using ABT-126 (Lenti-X 293T cells; 1 uM abt): −16.33% | YFP fluorescence quenching using Varenicline (Lenti-X 293T cells; 1 uM var, first column): 8.414 | YFP fluorescence quenching using Varenicline (Lenti-X 293T cells; 1 uM var, second column): 4.091 | percent quench of YFP fluorescence, 30 nM TC-6683 (Lenti-X 293T cells): −29.055% | percent quench of YFP fluorescence, 300 nM TC-6683 (Lenti-X 293T cells): −33.935% | percent quench of YFP fluorescence, 3 uM TC-6683 (Lenti-X 293T cells): −24.613% | percent quench of YFP fluorescence, 30 uM TC-6683 (Lenti-X 293T cells): −21.752% | percent quench of YFP fluorescence, 100 uM TC-6683 (Lenti-X 293T cells): −22.815% | percent quench of YFP fluorescence, 100 uM ach (Lenti-X 293T cells): −17.31% | percent quench of YFP fluorescence, 300 uM ach (Lenti-X 293T cells): −13.7% | percent quench of YFP fluorescence, 500 uM ach (Lenti-X 293T cells): −10.1% | percent quench of YFP fluorescence, 1 mM ach (Lenti-X 293T cells): 5.53% | percent quench of YFP fluorescence, 3 mM ach (Lenti-X 293T cells): 68.61% | percent quench of YFP fluorescence, 10 mM ach (Lenti-X 293T cells): 78.22% | Rheobase Shift; Rat DRG Neurons, +TC-5619 @ EC90 (rat DRG neurons): 590 ± 46 pA | Rheobase Shift; Rat DRG Neurons, Baseline (rat DRG neurons): 120 ± 19 pA
